Laboratory results reported in patent publication US20240325557A1, “TREATMENT OF CANCER” (INNATE PHARMA, priority 2020, published 2024).
Numbering of substitutions follows the chain as printed.

How the values were obtained:
Assay in all cases: Binding to cell surface expressed Nectin-4 point mutant
Conditions in all cases: HEK-293T
[1] = target: T1, Nectin-4 Mutant 1 (S58P/G59D/Q61A/N106D/P107A) (Homo sapiens, UniProt Q96NY8, G59D/N106D/P107A/Q61A/S58P)
T1 construct: expressed in transfected cells; host or cells: HEK293T
T1 sequence (Q96NY8 32-510 S58P/G59D/Q61A/N106D/P107A): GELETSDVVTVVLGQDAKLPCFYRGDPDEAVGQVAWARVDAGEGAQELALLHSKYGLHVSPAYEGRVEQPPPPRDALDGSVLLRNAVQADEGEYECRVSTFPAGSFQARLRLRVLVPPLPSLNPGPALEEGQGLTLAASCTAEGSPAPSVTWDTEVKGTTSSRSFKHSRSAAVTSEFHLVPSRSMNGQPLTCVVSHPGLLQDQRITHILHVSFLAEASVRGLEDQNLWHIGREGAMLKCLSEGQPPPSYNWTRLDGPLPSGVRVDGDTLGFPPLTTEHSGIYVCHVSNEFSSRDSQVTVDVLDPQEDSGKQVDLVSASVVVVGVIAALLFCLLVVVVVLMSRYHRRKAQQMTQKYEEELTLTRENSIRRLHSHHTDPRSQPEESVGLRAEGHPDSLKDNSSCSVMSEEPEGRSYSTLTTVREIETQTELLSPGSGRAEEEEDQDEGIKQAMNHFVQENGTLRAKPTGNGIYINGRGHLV
Text: (§1) Combined with the published structures of the Nectin-4 domains, Nectin-4 mutations at surface exposed amino acids residues were designed. Nectin-4 domain structure was modelled based on Protein Data Bank reference: 4FRW (domains V et C1). Human Nectin-4 used was NCBI Reference Sequence: NP_112178.2, mouse Nectin-4 used was NCBI Reference Sequence: AAL79833.1, cynomolgus Nectin-4 used was NCBI Reference Sequence: XP_005541277.1, rat Nectin-4 used was NCBI Reference Sequence: NP_001102546.1. The cells expressing the Nectin-4 mutants are then be used for testing anti-Nectin-4 antibodies for loss of binding to different Nectin-4 mutants to identify antibodies that bind to the same site on Nectin-4. […] FIGS. 12A and 12B show a molecular model of the human Nectin-4 protein, indicating the position of substituted residues in mutants 7 (12A) and in mutants 7bis (12B); these mutants are in the C1 domain identify two sites at the junction of domain C1 and V domain that are on opposing faces of the Nectin-4 protein.
(§2) Nectin-4 mutants were generated by PCR. The sequences amplified were run on agarose gel and purified using the Macherey Nagel PCR Clean-Up Gel Extraction kit. The purified PCR products generated for each mutant were then ligated into an expression vector, with the ClonTech InFusion system. The vectors containing the mutated sequences were prepared as Miniprep and sequenced. After sequencing, the vectors containing the mutated sequences were prepared as Midiprep using the Promega PureYield™ Plasmid Midiprep System. HEK293T cells were grown in DMEM medium (Invitrogen), transfected with vectors using Invitrogen's Lipofectamine 2000 and incubated at 37° C. in a CO2 incubator for 48 hours prior to testing for transgene expression. The targeted amino acid mutations are shown in Table 2 below, listing the residue present in wild-type Nectin-4/position of residue/residue present in mutant Nectin-4, with position reference being to the Nectin-4 protein with leader peptide shown in SEQ ID NO: 1.

[2] = target: T2, Nectin-4 Mutant 3 (A76S/Q77R/E78A/S91N) (Homo sapiens, UniProt Q96NY8, A76S/E78A/Q77R/S91N)
T2 construct: expressed in transfected cells; host or cells: HEK293T
T2 sequence (Q96NY8 32-510 A76S/Q77R/E78A/S91N): T1 sequence (Q96NY8 32-510 S58P/G59D/Q61A/N106D/P107A) with P27S, D28G, A30Q, A45S, Q46R, E47A, S60N, D75N, A76P
Text: as §1, §2

[3] = target: T3, Nectin-4 Mutant 6 (H238A/I239T/H241Q) (Homo sapiens, UniProt Q96NY8, H238A/H241Q/I239T)
T3 construct: expressed in transfected cells; host or cells: HEK293T
T3 sequence (Q96NY8 32-510 H238A/I239T/H241Q): T1 sequence (Q96NY8 32-510 S58P/G59D/Q61A/N106D/P107A) with P27S, D28G, A30Q, D75N, A76P, H207A, I208T, H210Q
Text: as §1, §2

[4] = target: T4, Nectin-4 Mutant 7bis (A72P/G73N/K197T/S199A) (Homo sapiens, UniProt Q96NY8, A72P/G73N/K197T/S199A)
T4 construct: expressed in transfected cells; host or cells: HEK293T
T4 sequence (Q96NY8 32-510 A72P/G73N/K197T/S199A): T1 sequence (Q96NY8 32-510 S58P/G59D/Q61A/N106D/P107A) with P27S, D28G, A30Q, A41P, G42N, D75N, A76P, K166T, S168A
Text: as §1, §2

B1: N41 (antibody, V domains shown)
VH: QVQLKQSGPGLVQPSQSLSITCTVSGFSLTNYGVHWVRQSPGKGLEWLGVIWSGGSTDYNAAFISRLSISKDTSKSQVFFKMNSLQADDTAIYYCARELIHAMDNWGQGTSVTVSS
VL: DIQMTQSPASLSVSVGETVTITCRASENIYSNLAWYQQKQGNSPQLLVFAATNLADGVPSRFSGSGSGTQYSLKINSLQSEDFGTYYCQHFWGTPTFGGGTKLEIK
association with Nectin-4 Mutant 1 [1]: −
association with Nectin-4 Mutant 3 [2]: +
association with Nectin-4 Mutant 6 [3]: +
association with Nectin-4 Mutant 7bis [4]: +

B2: 5E7 (antibody, V domains shown)
VH: QVQLQQPGAELVKPGASVKLSCKASGYIFTSYWMHWVKQRPGQGLEWIGEIDPSDSYTNYNQKFKGKATLTLDKSSSTTYMQLSSLTSEDSAVYYCVRGYGNYGDYWGQGTTLTVSS
VL: DVVMTQAAFSNPVTLGTSASISCRSSKSLLHSNGITYLYWYLQKPGQSPQLLIYQMSNLASGVPDRFSSSGSGTDFTLRISRVEAEDVGVYYCAQNLELPWTFGGGTKLEIK
association with Nectin-4 Mutant 1 [1]: +
association with Nectin-4 Mutant 3 [2]: +
association with Nectin-4 Mutant 6 [3]: +
association with Nectin-4 Mutant 7bis [4]: −

B3: 10B12: anti-Nectin-4 antibody, VH SEQ ID NO: 24, VL SEQ ID NO: 25, binds junction of domain C1 and V (antibody, listed as Mus musculus, V domains shown)
VH: B2 VH with I28T, L72V, T79A
VL: B2 VL with V2I
association with Nectin-4 Mutant 1 [1]: +
association with Nectin-4 Mutant 3 [2]: +
association with Nectin-4 Mutant 6 [3]: +
association with Nectin-4 Mutant 7bis [4]: −
